Results reported in US20250019430A1 (published 2025).

Molecular target: RETN-C-His (#S0995)
Test: Octet BLI

Binder	Kd [nM]
5A2 (antibody, V domains shown) VH: QVQLVQSGAEGRKPGSSVKVSCKVSGDTFSSYAISWVRQAPGQGLEWMGGIIPIFGAADYAQKFKGRVTISADESTSTAYMELSSLRSEDTAVYYCAKGPDYYGSFDPWGQGTLITVSS VL: DIQMTQSPSFLSASVGDRVTITCRASQYIGTYLAWYQQQPGKAPKLLIYGASILQNGVPSRFSGSASGTEFTLTISSLQPEDFATYYCQQADSFPLTFGGGTKVDIKR	2.14

Molecular target: T1, RETN-flag-His (human, UniProt Q9HD89 19-108)
T1 chain: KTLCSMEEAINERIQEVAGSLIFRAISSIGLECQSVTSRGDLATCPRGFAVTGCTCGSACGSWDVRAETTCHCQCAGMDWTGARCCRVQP
Test: Octet BLI

Binder	Kd [nM]
RETN-5A2 (antibody, V domains shown) VH: QVQLVQSGAEGRKPGSSVKVSCKVSGDTFSSYAISWVRQAPGQGLEWMGGIIPIFGAADYAQKFKGRVTISADESTSTAYMELSSLRSEDTAVYYCAKGPDYYGSFDPWGQGTLITVSS VL: DIQMTQSPSFLSASVGDRVTITCRASQYIGTYLAWYQQQPGKAPKLLIYGASILQNGVPSRFSGSASGTEFTLTISSLQPEDFATYYCQQADSFPLTFGGGTKVDIKR	2.1

Molecular target: RETN-His (#S0995)
Test: Octet BLI

Binder	Kd [nM]
5A2-LS-2E10 (antibody, V domains shown) VH: QVQLVQSGAEGRKPGSSVKVSCKVSGDTFSSYAISWVRQAPGQGLEWMGGIIPIFGAADYAQKFKGRVTISADESTSTAYMELSSLRSEDTAVYYCAKGPDYYGSFDPWGQGTLITVSS VL: DIQMTQSPSSLSASVGDRVTITCRTSQTITNYLNWYQQKPGRAPKLLIFDASNLETGVPSRFSGSGSGTDFTLTISSLQPEDFATYFCQQSYNPGYTFGQGTKLEIKR	0.419
5A2-LS-2H10 (antibody, V domains shown) VH: QVQLVQSGAEGRKPGSSVKVSCKVSGDTFSSYAISWVRQAPGQGLEWMGGIIPIFGAADYAQKFKGRVTISADESTSTAYMELSSLRSEDTAVYYCAKGPDYYGSFDPWGQGTLITVSS VL: NFMLTQPASVSGSPGQSITISCTGSSSDVGGYNYVTWYQQHPGKAPQLIIYDVTKRPSGVSNRFSGSKSGNSASLTISGLQAEDEADYYCSSYSSSTFYVFGTGTKVTVLR	0.538
5A2-LS-2D07 (antibody, V domains shown) VH: QVQLVQSGAEGRKPGSSVKVSCKVSGDTFSSYAISWVRQAPGQGLEWMGGIIPIFGAADYAQKFKGRVTISADESTSTAYMELSSLRSEDTAVYYCAKGPDYYGSFDPWGQGTLITVSS VL: QSALTQPASVSGSPGQSVTISCTGTSSDIGRYNRVSWYQHHPGKAPKLIIYDVSNRPSGVSNRFSGSKSGNTASLTISGLQAGDESDYYCSAYTRSSTWVFGGGTKLTVLR	0.49
5A2-LS-2B02 (antibody, V domains shown) VH: QVQLVQSGAEGRKPGSSVKVSCKVSGDTFSSYAISWVRQAPGQGLEWMGGIIPIFGAADYAQKFKGRVTISADESTSTAYMELSSLRSEDTAVYYCAKGPDYYGSFDPWGQGTLITVSS VL: DIQMTQSPGTLSLSAGERATLSCRASQSVRGSYLAWYQQKPGQAPRLLIYGTSSRAPGIPDRFSGSGSGTDFTLTISSLEPEDFAVYYCQQRGDWLYTFGQGTKVEIKR	0.452
5A2-LS-2F11 (antibody, V domains shown) VH: QVQLVQSGAEGRKPGSSVKVSCKVSGDTFSSYAISWVRQAPGQGLEWMGGIIPIFGAADYAQKFKGRVTISADESTSTAYMELSSLRSEDTAVYYCAKGPDYYGSFDPWGQGTLITVSS VL: DIQMTQSPSSLSASVGDRVTITCRASQSIGTYLNWYQQKPGKAPKLLIYDASSLEDGVPSRFSGSGSGTDFTLTISSLQPEDSATYYCQQSYTMPLYTFGQGTKLEIKR	0.443
5A2-LS-2G03 (antibody, V domains shown) VH: QVQLVQSGAEGRKPGSSVKVSCKVSGDTFSSYAISWVRQAPGQGLEWMGGIIPIFGAADYAQKFKGRVTISADESTSTAYMELSSLRSEDTAVYYCAKGPDYYGSFDPWGQGTLITVSS VL: DIQMTQSPSSLSASVGDRVTITCQASQHVSSYLNWYQQKPGKAPKLLIYAASNLQSGVPSRFSGSGSGTDFTLTISSLQPDDFATYYCQQYDSYSSVYTFGPGTKLDIKR	0.311
5A2 (antibody, V domains shown) VH: QVQLVQSGAEGRKPGSSVKVSCKVSGDTFSSYAISWVRQAPGQGLEWMGGIIPIFGAADYAQKFKGRVTISADESTSTAYMELSSLRSEDTAVYYCAKGPDYYGSFDPWGQGTLITVSS VL: DIQMTQSPSFLSASVGDRVTITCRASQYIGTYLAWYQQQPGKAPKLLIYGASILQNGVPSRFSGSASGTEFTLTISSLQPEDFATYYCQQADSFPLTFGGGTKVDIKR	1.17
5A2-LS-1F11 (antibody, V domains shown) VH: QVQLVQSGAEGRKPGSSVKVSCKVSGDTFSSYAISWVRQAPGQGLEWMGGIIPIFGAADYAQKFKGRVTISADESTSTAYMELSSLRSEDTAVYYCAKGPDYYGSFDPWGQGTLITVSS VL: not shown	0.958
